Patent US20240016847A1 (TRUSTEES OF COLUMBIA UNIVERSITY IN THE CITY OF NEW YORK, published 2024)

What was measured:
[1] = biological target: sfGFP linked to the PlGF123-144 peptide sequence with a flexible glycine-serine linker at the C-terminus …; assay: cell-based or functional assay
[2] = biological target: sfGFP with a cysteine substitution at position D117 (D117C synthetic antigen) (Aequorea victoria (Water jellyfish) …, UniProt P42212 2-238 = GFP); assay: cell-based or functional assay

B1: GFP specific ProCAR construct (GFP28z): sfGFP-binding nanobody, IgG4 hinge, CD28 transmembrane and intracellular domains, CD3zeta signaling domain (receptor)
chain: QVQLQESGGGSVQAGGSLKLSCAASGGAYRNACMGWFRQAPGKEREGVAIINSVDTTYYADPVKGRFTISRDNAKSTVYLLMNSLKPEDTAIYYCAQVARVVCPGDKLGASGYNYWGQGTQVTVSSGSESKYGPPCPCPAFWVLVVVGGVLACYSLLVTVAFIIFWVRSKRSRLLHSDYMNMTPRRPGPTRKHYQPYAPPRDFAAYRSLRVKFSRSADAPAYQQGQNQLYNELNLGRREEYDVLDKRRGRDPEMGGKPRRKNPQEGLYNELQKDKMAEAYSEIGMKGERRRGKGHDGLYQGLSTATKDTYDALHMQALPPR
- SA-driven fold expansion of GFP28z [1]: 8 fold
- viability of GFP28z T cells after 24 hr with 500 ng/mL PlGF-SA, relative to untreated controls [1]: ~72 % of untreated controls
- SA-driven fold expansion of GFP28z [2]: 8 fold
